From patent US20140057284A1, “PHOTOLUMINESCENT MOLECULAR COMPLEX AND METHOD FOR DETERMINING OF THE CONCENTRATION OF SAID MOLECULAR COMPLEX” (priority 2011, published 2014)

Key:
Test in all cases: biochemical
Details in all cases: read-out: Percentages of residual activities of the kinase reaction
ABL = ABL (Homo sapiens, UniProt P00519)
Description: (§1) Selectivity testing (Table 2) was performed on the commercial basis at the Division of Signal Transduction Therapy, University of Dundee. ATP concentrations that were used in testing were close to the Km value of the kinase.

BRK = BRK (Homo sapiens, UniProt Q13882)
Description: as §1

BRSK1 = BRSK1 (Homo sapiens, UniProt Q8TDC3)
Description: as §1

CDK2-Cyclin A = CDK2-Cyclin A (Homo sapiens, UniProt P24941)
Description: as §1

DYRK1A = DYRK1A (Homo sapiens, UniProt Q13627)
Description: as §1

EPH-B3 = EPH-B3 (Homo sapiens, UniProt P54753)
Description: as §1

ERK1 = ERK1 (Homo sapiens, UniProt P27361)
Description: as §1

ERK2 = ERK2 (Homo sapiens, UniProt P28482)
Description: as §1

GSK3b = GSK3b (Homo sapiens, UniProt P49841)
Description: as §1

HIPK1 = HIPK1 (Homo sapiens, UniProt Q86Z02)
Description: as §1

HIPK3 = HIPK3 (Homo sapiens, UniProt Q9H422)
Description: as §1

IGF-1R = IGF-1R (Homo sapiens, UniProt P08069)
Description: as §1

IKKb = IKKb (Homo sapiens, UniProt O14920)
Description: as §1

JAK2 = JAK2 (Homo sapiens, UniProt O60674)
Description: as §1

JNK1 = JNK1 (Homo sapiens, UniProt P45983)
Description: as §1

JNK2 = JNK2 (Homo sapiens, UniProt P45984)
Description: as §1

JNK3 = JNK3 (Homo sapiens, UniProt P53779)
Description: as §1

Lck = Lck (Homo sapiens, UniProt P06239)
Description: as §1

MAPKAP-K2 = MAPKAP-K2 (Homo sapiens, UniProt P49137)
Description: as §1

MARK1 = MARK1 (Homo sapiens, UniProt Q9P0L2)
Description: as §1

MEKK1 = MEKK1 (Homo sapiens, UniProt Q13233)
Description: as §1

MELK = MELK (Homo sapiens, UniProt Q14680)
Description: as §1

MLK1 = MLK1 (Homo sapiens, UniProt P80192)
Description: as §1

MNK1 = MNK1 (Homo sapiens, UniProt Q9BUB5)
Description: as §1

MNK2 = MNK2 (Homo sapiens, UniProt Q9HBH9)
Description: as §1

NEK2a = NEK2a (Homo sapiens, UniProt P51955)
Description: as §1

PAK5 = PAK5 (Homo sapiens, UniProt Q9P286)
Description: as §1

PDK1 = PDK1 (Homo sapiens, UniProt O15530)
Description: as §1

PIM1 = PIM1 (Homo sapiens, UniProt P11309)
Description: as §1

PKBa = PKBa (Homo sapiens, UniProt P31749)
Description: as §1

PKCz = PKCz (Homo sapiens, UniProt Q05513)
Description: as §1

PKCγ = PKCγ (Homo sapiens, UniProt P05129)
Description: as §1

PKD1 = PKD1 (Homo sapiens, UniProt Q15139)
Description: as §1

PLK1 = PLK1 (Homo sapiens, UniProt P53350)
Description: as §1

RSK2 = RSK2 (Homo sapiens, UniProt P51812)
Description: as §1

S6K1 = S6K1 (Homo sapiens, UniProt P23443)
Description: as §1

STK33 = STK33 (Homo sapiens, UniProt Q9BYT3)
Description: as §1

SYK = SYK (Homo sapiens, UniProt P43405)
Description: as §1

TAO1 = TAO1 (Homo sapiens, UniProt Q7L7X3)
Description: as §1

p38d MAPK = p38d MAPK (Homo sapiens, UniProt O15264)
Description: as §1

p38g MAPK = p38g MAPK (Homo sapiens, UniProt P53778)
Description: as §1

BRK, sequence (Q13882 whole entry, species assumed): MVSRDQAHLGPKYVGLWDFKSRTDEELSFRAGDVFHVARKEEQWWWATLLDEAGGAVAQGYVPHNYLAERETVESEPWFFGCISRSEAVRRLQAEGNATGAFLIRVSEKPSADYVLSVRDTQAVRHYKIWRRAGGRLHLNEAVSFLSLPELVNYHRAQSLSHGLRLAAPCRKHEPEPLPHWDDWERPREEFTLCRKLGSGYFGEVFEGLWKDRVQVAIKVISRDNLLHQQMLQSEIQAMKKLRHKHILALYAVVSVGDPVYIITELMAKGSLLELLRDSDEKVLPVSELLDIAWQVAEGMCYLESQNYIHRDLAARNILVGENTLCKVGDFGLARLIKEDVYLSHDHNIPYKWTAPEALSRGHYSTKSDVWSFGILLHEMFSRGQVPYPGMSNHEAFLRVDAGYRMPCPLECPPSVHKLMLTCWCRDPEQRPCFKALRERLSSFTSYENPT
HIPK3, sequence (Q9H422 whole entry, species assumed): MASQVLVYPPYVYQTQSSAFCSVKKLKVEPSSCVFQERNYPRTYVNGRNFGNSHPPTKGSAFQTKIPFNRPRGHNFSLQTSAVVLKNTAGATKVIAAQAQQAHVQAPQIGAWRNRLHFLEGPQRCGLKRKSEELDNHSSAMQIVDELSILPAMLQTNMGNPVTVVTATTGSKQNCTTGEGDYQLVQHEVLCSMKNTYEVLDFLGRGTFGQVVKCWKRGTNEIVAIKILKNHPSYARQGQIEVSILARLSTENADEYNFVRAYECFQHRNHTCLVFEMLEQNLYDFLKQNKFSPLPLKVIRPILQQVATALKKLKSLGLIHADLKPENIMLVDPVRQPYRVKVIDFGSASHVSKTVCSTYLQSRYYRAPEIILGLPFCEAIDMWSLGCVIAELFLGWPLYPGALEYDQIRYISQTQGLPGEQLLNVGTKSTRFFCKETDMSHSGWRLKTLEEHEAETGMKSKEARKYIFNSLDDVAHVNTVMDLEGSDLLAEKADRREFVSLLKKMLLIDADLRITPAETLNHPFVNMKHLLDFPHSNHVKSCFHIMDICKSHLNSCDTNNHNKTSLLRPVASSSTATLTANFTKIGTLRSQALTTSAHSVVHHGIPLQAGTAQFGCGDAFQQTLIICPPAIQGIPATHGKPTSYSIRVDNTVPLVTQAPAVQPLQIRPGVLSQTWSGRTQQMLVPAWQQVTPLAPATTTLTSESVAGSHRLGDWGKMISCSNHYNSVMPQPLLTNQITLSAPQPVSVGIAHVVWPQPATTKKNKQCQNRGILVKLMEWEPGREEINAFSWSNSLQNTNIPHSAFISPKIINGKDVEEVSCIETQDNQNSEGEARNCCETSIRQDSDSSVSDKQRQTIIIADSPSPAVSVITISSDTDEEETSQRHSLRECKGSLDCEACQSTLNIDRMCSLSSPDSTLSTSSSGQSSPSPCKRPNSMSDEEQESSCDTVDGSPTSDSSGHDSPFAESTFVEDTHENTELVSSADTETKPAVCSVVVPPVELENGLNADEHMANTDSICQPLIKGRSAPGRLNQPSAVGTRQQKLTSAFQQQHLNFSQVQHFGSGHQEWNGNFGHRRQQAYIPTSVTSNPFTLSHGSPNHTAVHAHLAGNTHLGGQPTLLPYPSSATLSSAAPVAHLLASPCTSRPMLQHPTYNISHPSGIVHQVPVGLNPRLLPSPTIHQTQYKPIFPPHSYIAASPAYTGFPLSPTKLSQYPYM
MNK1, sequence (Q9BUB5 whole entry, species assumed): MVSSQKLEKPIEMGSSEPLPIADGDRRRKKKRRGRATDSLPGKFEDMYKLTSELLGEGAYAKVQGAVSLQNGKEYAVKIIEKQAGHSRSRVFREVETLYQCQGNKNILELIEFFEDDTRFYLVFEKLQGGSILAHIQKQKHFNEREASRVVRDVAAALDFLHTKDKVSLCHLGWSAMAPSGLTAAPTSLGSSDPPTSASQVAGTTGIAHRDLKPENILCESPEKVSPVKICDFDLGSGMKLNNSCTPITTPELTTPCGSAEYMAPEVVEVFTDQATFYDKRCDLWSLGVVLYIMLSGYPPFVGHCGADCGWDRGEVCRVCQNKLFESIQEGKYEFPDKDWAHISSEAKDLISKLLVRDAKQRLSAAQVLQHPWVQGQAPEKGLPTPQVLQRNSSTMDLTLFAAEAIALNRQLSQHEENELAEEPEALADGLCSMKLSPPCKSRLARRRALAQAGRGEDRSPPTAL
STK33, sequence (Q9BYT3 whole entry, species assumed): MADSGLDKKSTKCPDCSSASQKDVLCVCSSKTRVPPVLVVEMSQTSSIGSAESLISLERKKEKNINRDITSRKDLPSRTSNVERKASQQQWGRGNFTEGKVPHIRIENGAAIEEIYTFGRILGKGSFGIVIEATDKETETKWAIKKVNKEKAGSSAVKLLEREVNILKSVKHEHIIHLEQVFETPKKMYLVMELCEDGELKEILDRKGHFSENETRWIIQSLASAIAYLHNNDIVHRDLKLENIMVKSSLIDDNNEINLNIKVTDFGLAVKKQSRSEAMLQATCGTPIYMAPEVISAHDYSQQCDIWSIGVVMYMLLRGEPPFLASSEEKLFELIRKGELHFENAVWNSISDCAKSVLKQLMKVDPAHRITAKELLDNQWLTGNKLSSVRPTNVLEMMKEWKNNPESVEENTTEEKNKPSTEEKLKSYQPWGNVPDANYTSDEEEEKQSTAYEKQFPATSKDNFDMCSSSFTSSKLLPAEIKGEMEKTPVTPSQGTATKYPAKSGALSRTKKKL
BRSK1, sequence (Q8TDC3 whole entry, species assumed): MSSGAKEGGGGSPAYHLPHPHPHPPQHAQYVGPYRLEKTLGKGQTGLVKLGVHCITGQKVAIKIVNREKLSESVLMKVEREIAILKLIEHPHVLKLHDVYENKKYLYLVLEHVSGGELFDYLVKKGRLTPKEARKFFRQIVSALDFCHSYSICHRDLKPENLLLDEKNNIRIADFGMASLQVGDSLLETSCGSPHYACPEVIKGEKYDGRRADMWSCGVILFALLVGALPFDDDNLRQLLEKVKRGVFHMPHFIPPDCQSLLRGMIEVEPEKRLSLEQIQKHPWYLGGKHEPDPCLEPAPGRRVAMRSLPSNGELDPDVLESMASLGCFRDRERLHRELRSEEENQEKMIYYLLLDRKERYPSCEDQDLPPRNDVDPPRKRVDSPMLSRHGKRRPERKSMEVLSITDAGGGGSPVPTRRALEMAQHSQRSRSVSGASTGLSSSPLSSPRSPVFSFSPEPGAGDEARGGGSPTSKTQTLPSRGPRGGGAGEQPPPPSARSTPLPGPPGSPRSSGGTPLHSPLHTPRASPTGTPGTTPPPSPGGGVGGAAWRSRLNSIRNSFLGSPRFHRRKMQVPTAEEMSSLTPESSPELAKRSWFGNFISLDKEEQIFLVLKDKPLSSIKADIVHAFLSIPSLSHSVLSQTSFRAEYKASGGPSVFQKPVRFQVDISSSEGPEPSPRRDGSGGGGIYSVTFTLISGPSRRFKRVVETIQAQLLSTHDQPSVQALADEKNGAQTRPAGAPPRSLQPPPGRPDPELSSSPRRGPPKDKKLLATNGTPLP
JAK2, sequence (O60674 whole entry, species assumed): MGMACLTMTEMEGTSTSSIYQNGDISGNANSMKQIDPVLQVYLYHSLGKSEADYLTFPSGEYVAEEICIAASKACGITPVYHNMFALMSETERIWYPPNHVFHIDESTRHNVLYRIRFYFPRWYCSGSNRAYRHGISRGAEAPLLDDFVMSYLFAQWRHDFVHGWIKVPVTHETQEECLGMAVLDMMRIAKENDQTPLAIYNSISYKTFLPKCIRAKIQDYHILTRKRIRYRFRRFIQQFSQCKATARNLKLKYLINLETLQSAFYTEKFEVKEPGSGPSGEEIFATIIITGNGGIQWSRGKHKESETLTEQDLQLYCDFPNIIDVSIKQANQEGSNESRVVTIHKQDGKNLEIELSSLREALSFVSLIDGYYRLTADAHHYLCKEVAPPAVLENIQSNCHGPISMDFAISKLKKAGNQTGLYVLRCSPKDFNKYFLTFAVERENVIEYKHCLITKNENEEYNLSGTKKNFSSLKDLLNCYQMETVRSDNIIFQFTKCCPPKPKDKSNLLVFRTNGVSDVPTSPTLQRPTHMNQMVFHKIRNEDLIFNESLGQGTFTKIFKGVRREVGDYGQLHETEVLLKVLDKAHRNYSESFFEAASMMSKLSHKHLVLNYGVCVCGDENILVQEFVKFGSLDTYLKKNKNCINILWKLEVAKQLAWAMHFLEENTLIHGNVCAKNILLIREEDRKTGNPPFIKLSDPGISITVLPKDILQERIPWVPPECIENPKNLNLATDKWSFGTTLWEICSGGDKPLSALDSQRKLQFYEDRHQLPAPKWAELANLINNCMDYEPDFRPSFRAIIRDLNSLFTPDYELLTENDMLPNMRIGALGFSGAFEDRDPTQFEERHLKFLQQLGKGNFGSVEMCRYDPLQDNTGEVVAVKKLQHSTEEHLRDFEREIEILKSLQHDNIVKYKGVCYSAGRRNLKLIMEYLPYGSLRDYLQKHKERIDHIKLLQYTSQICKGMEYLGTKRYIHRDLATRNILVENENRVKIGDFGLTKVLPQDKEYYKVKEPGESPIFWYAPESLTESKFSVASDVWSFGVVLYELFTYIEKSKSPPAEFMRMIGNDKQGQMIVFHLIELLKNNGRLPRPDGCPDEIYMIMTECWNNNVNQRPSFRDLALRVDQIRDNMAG
JNK1, sequence (P45983 whole entry, species assumed): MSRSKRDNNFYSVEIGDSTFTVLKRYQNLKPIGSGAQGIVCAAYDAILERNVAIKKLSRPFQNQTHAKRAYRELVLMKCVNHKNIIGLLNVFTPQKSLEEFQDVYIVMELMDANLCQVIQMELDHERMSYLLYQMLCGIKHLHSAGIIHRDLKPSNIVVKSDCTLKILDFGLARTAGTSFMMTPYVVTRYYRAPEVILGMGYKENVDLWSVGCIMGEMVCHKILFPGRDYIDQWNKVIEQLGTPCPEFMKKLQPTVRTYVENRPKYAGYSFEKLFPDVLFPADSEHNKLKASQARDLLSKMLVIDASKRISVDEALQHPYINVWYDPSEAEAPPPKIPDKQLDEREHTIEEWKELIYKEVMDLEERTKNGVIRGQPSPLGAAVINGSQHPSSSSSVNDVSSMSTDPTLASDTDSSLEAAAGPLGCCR

SMILES: CN(C)c1ccc2c(c1)Oc1cc(N(C)C)ccc1C21OC(=O)c2cc(C(=O)NCCCC[C@@H](NC(=O)[C@@H](CCCNC(=N)N)NC(=O)[C@@H](CCCNC(=N)N)NC(=O)[C@@H](CCCNC(=N)N)NC(=O)[C@@H](CCCNC(=N)N)NC(=O)[C@@H](CCCNC(=N)N)NC(=O)[C@@H](CCCNC(=N)N)NC(=O)CCCCCNC(=O)[C@@H](CCCNC(=N)N)NC(=O)CCCCCNC(=O)c3ccc(-c4ccnc(N)n4)s3)C(N)=O)ccc21 [ARC-669]
- remaining activity at 1 µM (ABL): 88%
- remaining activity at 1 µM (BRK): 100%
- remaining activity at 1 µM (BRSK1): 44%
- remaining activity at 1 µM (CDK2-Cyclin A): 78%
- remaining activity at 1 µM (DYRK1A): 27%
- remaining activity at 1 µM (EPH-B3): 75%
- remaining activity at 1 µM (ERK1): 114%
- remaining activity at 1 µM (ERK2): 80%
- remaining activity at 1 µM (GSK3b): 77%
- remaining activity at 1 µM (HIPK1): 94%
- remaining activity at 1 µM (HIPK3): 97%
- remaining activity at 1 µM (IGF-1R): 38%
- remaining activity at 1 µM (IKKb): 50%
- remaining activity at 1 µM (JAK2): 80%
- remaining activity at 1 µM (JNK1): 91%
- remaining activity at 1 µM (JNK2): 85%
- remaining activity at 1 µM (JNK3): 77%
- remaining activity at 1 µM (Lck): 11%
- remaining activity at 1 µM (MAPKAP-K2): 13%
- remaining activity at 1 µM (MARK1): 65%
- remaining activity at 1 µM (MEKK1): 19%
- remaining activity at 1 µM (MELK): 31%
- remaining activity at 1 µM (MLK1): 60%
- remaining activity at 1 µM (MNK1): 74%
- remaining activity at 1 µM (MNK2): 76%
- remaining activity at 1 µM (NEK2a): 55%
- remaining activity at 1 µM (PAK5): 18%
- remaining activity at 1 µM (PDK1): 88%
- remaining activity at 1 µM (PIM1): 3%
- remaining activity at 1 µM (PKBa): 1%
- remaining activity at 1 µM (PKCz): 10%
- remaining activity at 1 µM (PKCγ): 13%
- remaining activity at 1 µM (PKD1): 37%
- remaining activity at 1 µM (PLK1): 101%
- remaining activity at 1 µM (RSK2): 4%
- remaining activity at 1 µM (S6K1): 4%
- remaining activity at 1 µM (STK33): 76%
- remaining activity at 1 µM (SYK): 73%
- remaining activity at 1 µM (TAO1): 94%
- remaining activity at 1 µM (p38d MAPK): 104%
- remaining activity at 1 µM (p38g MAPK): 104%
